The values that follow come from article doi:10.1101/2025.02.12.637862.

For this assay, the target named is biotinylated recombinant SARS-CoV-2 RBD (SARS-CoV-2) (UniProt P0DTC2). As to the kind of experiment: BLI.

With “soluble N. vison ACE2 (domain or fragment)”, the Kd came out at 1.5 µM.

One may read the Kd as the concentration at which binding is half-saturated.
